Biological target: BF520.1 (human (infant BF520))
Assay: BLI

BF520.W14.E3 native-like SOSIP trimer (complex)
Kd: 8 nM

Reference: article PMC4930401
